This note sets out measurements from the nanobody polyreactivity screen of Harvey et al. (2022).

A short description of this series: yeast display, Sf9 membrane polyspecificity reagent, FACS + sequencing; frameworks hold sequencing errors. The procedure, abridged: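 Polyreactivity labels are assigned by the sorting gate from which each nanobody was recovered. The gates were low and high (top ~1%), set on anti-HA fluorescence for expression and streptavidin fluorescence for reagent binding. Before sorting, galactose-induced (36–48 hours) yeast display cells were stained for 1 hour at 4 °C with 10% biotinylated, detergent-solubilized Sf9 membrane reagent.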
Turning to “QVQLVESGGGLVQAGGSLRLSCAASGFTFVDNAMGWYRQPPRKERELVAAISWTGVGSTYYADSVKGRFTISRDNAKNTDYLQMNSLKPEDTAVYYCAADGLSRGVPDEFDYWGQGTQVTVSS”, the “polyreactivity (PSR sort gate)” value is recorded as “low polyreactivity”.

As to “QVQLVESGGGLVQAGGSLRLSCAASGFTFVFYAIGWYRQAPGKARELVAAISSRGGSTYYADSVKGRFTISRDNAKNTVYLQMNSLKPEDTAVYYCNVVSPYWTTYEEYYWGQGTQVTVSS”, the “polyreactivity (PSR sort gate)” value is recorded as “high polyreactivity”.

In the case of “QVQLVESGGGLVQAGGSLRLSCAASGFTFVKNVMGWYRQAPGKERELVADITRRGGTTYYADSVKGRFTISRDNAKNTVYLQMNSLKPEDTAVYYCATEYWYGIYGYDYWGQGTQVTVSS”, the “polyreactivity (PSR sort gate)” value is listed as “high polyreactivity”.

On to “QVQLVESGGGLVQAGGSLRLSCAASGFTFVKYAMGWYRQAPGKERELVAVISRRGGSTYYADSVKGRFTISRDNAKNTVYLQMNSLKPEDTAVYYFAAKVALPRTQEWEYGYWGQGTQVTVSS”, for which the “polyreactivity (PSR sort gate)” value is given as “high polyreactivity”.

As for “QVQLVESGGGLVQAGGSLRLSCAASGFTFVPYAMGWYRLAPGKEREFVATISWSAGRTYYADSVKGRFTISRDNAKNTVYLQMNSLKPEDTAVYYCNTASYRGYDYWGQGTQVTVSS”, the “polyreactivity (PSR sort gate)” value was “high polyreactivity”.

In the case of “QVQLVESGGGLVQAGGSLRLSCAASGFTFVPYAMGWYRQAPGKERELVAAISSTGGSTYYADSVKGRFTISRDNAKNTVYLQMNSLKPEDTAVYYCAAKITRRYYPGYLFDSWGQGTQVTVSS”, the “polyreactivity (PSR sort gate)” value is reported as “high polyreactivity”.

Turning to “QVQLVESGGGLVQAGGSLRLSCAASGFTFVPYDMGWYRQAPGKERELVAAITDSSGSTHYADSVKGRFTFSRDNAKNTVYLQMNSLKPEDTAVYYCAADDSSRTTYDYWGQGTQVTVSS”, the “polyreactivity (PSR sort gate)” value is listed as “low polyreactivity”.

On to “QVQLVESGGGLVQAGGSLRLSCAASGFTFVRNAMGWYRQAPGKERELVAAISYRGGSTYYADSVKGRFTISRDNAKNTVYLQMNSLKPEDTAVYYCAAEAGYSSRRYYWGQGTQVTVSS”, for which the “polyreactivity (PSR sort gate)” value was “high polyreactivity”.

Regarding “QVQLVESGGGLVQAGGSLRLSCAASGFTFVRNAMGWYRQAPGNERELVAALSTSAGSTYYADSVKGRFTISRDNAKNTVYLQMNSLKPEDTAVYYSAASASRYFVLAASGGIRYYYWGQGTQVTVSS”, the “polyreactivity (PSR sort gate)” value is reported as “high polyreactivity”.

In the case of “QVQLVESGGGLVQAGGSLRLSCAASGFTFVRYAMGWYRQAPGKERELVAAISRSSGSTYYADSVKGRFTISRDNAKNTVYLQMNSLKPEDTAVYYCARRYGRYSGTYDYWGQGTQVTVSS”, the “polyreactivity (PSR sort gate)” value was “high polyreactivity”.

With “QVQLVESGGGLVQAGGSLRLSCAASGFTFVRYVMGWYRQAPGKERELVAAISRSGGSTHYADSVKGRFTISRDNAKYTVYLQMNSLKPEDTAVYYCAAASPRWPGQGDYWGEGTQVTVSS”, the “polyreactivity (PSR sort gate)” value is given as “high polyreactivity”.

For the sequence “QVQLVESGGGLVQAGGSLRLSCAASGFTFVSYAMGWYRQAPGKERELVAAISKRGGSTSYADSVKGRFTISRDNAKNTVYFQMNSLKPEDTAVYYCYNRSYAWSPHVDYWGQGTQVTVSS”, the “polyreactivity (PSR sort gate)” value is listed as “high polyreactivity”.

“QVQLVESGGGLVQAGGSLRLSCAASGFTFVSYAMGWYRQAPGKERELVAAISRSGGRTYYADSVKGRFTISRDNAKNTVYLQMNSLKPEDSAVYYCAKAYRPFYSRVQDYDYWGQGTQVTVSS”: the “polyreactivity (PSR sort gate)” value is given as “high polyreactivity”.

Take “QVQLVESGGGLVQAGGSLRLSCAASGFTFVTYAMGWSSQAPGKERELVATISWGVGGSYYADSVKGRFTISRDNAKNTVYLPMNSLKPEDTAVYYCNARHTWHQTYDYWGQGTQVTVSS”: the “polyreactivity (PSR sort gate)” value is “low polyreactivity”.

As to “QVQLVESGGGLVQAGGSLRLSCAASGFTFVWYAMGWYRQAPGKEREFVAAINRSGGSTYYADSVKGRFTISRDNAKNTVYLQMNSLKPEDTAVYYCAAESWRGWSEFYYWGQGTQVTVSS”, the “polyreactivity (PSR sort gate)” value is on record as “high polyreactivity”.

“QVQLVESGGGLVQAGGSLRLSCAASGFTFVYNAMGWYRQAPGKERELVAAISSSGGRTYYADSVKGRFTISRDNAKNTVYLQMNSLKPEDTAVYYCAVEYPVYYYVEYDYWGQGTQVTVSS”: the “polyreactivity (PSR sort gate)” value was “high polyreactivity”.

On to “QVQLVESGGGLVQAGGSLRLSCAASGFTFVYYAMGWYRQAPGKERELVAAISQSGSSTYYADSVKGRFTISRDNPKNTVYLQMNSLKPEDTAVYYCNVYYASRPTYDFGYWGQVTQVTVSS”, for which the “polyreactivity (PSR sort gate)” value is “high polyreactivity”.

In the case of “QVQLVESGGGLVQAGGSLRLSCAASGFTFVYYAMGWYRQAPGKERELVAAITSADSTNYADSVKGRFTISRDNAKNTVYLQMNSLKPEDTAVYYCNAVYDYYRQSKWTMVYWGQGTQVTVSS”, the “polyreactivity (PSR sort gate)” value is given as “low polyreactivity”.

Regarding “QVQLVESGGGLVQAGGSLRLSCAASGFTFVYYAMGWYRQAPGKERELVATISGNGGRTYYADSVKGRFTISRDNAKNTVYLQMNSLIPDDTAVYYCATDVGFGRKQRPHRPGYGYWGQGTLVTVSS”, the “polyreactivity (PSR sort gate)” value is on record as “low polyreactivity”.

As to “QVQLVESGGGLVQAGGSLRLSCAASGFTFVYYAMGWYRQAPGKERELVPAISWNGGSTYYADSVKGRFTISRDNAKNTVYLQMNCLKPEDTAVYYCAAEYSYRLLQTFYYPYGYWGQGTQVTVSS”, the “polyreactivity (PSR sort gate)” value is “high polyreactivity”.

On to “QVQLVESGGGLVQAGGSLRLSCAASGFTFVYYTMGWYRPAPWKERELVAAITWRGSTYYADSVKGRFTISRDNAKNTVYLQMNSLKPEDTAVYYCAARYRVLLRHREYDYWGQGTQVTVSS”, for which the “polyreactivity (PSR sort gate)” value is given as “high polyreactivity”.

For the sequence “QVQLVESGGGLVQAGGSLRLSCAASGFTFVYYVMGWYRQAPGKERELVAAINAGGGSTYYADSVKGRFTISRDNAKNTVYLQMNSLKPEDTAVYYCNARVRVRLGRKWSSYYYWGQGTQVTVSS”, the “polyreactivity (PSR sort gate)” value was “high polyreactivity”.

In the case of “QVQLVESGGGLVQAGGSLRLSCAASGFTFWGYGMGWYRQAPGKERELVAAISGSGGSTYYADSVKGRFTISRDNAKNTVFLQMNSLKRKIPRSITALLFTVNGGGSRSHDYWAQGTQVTVSS”, the “polyreactivity (PSR sort gate)” value is “low polyreactivity”.

For the sequence “QVQLVESGGGLVQAGGSLRLSCAASGFTFWQYAMGSSRTAPGKERELVAAISSRGGSTYYADSVKGRFTISRDKAKNTVYLQMNSLKPEDTAVYYCNARANGFKDGYWGQGTQVTVSS”, the “polyreactivity (PSR sort gate)” value is reported as “high polyreactivity”.

On to “QVQLVESGGGLVQAGGSLRLSCAASGFTFWQYTMGWYRQAPGKERELVAAITSSGGSTYYADSVKGRFTISRDNAKNTVYLQMNSLKPEDTAVYYCAADGWGYSFQWQDHDYWGQGTQVTVSS”, for which the “polyreactivity (PSR sort gate)” value was “low polyreactivity”.

Take “QVQLVESGGGLVQAGGSLRLSCAASGFTFWRYAMAWYRQAPWKERDLVAAISRTGGRTYYADSVKGRFTISRDNAKNTVYLQMNSLKPEDTAVDYCAAVKYETYRYNYDYWGQGTQVTVSS”: the “polyreactivity (PSR sort gate)” value is listed as “high polyreactivity”.

As for “QVQLVESGGGLVQAGGSLRLSCAASGFTFWRYTMGWYRQAPGKERELVAAINWSGGRTYYADSVKGRFTISRDNAKNTVYLQMNSLKPEDTAVYYCATGYSTSVGGSQGDSWGQGTQVTVSS”, the “polyreactivity (PSR sort gate)” value is “high polyreactivity”.

With “QVQLVESGGGLVQAGGSLRLSCAASGFTFWRYTMGWYRQAPGKERELVATIRRGTSTNYADSVKGRFTISRDNAKNTVYLQMNSLKPEDTAVYYCAADPWRYYVEYDYWGQGTQVTVSS”, the “polyreactivity (PSR sort gate)” value is on record as “high polyreactivity”.

Regarding “QVQLVESGGGLVQAGGSLRLSCAASGFTFWTYAMGWYRQAPGKERELVAAIDSGGSTYYADSVKGRFTISRDNAKNTVYLQMHSLKPEDTAVYYCNAGPSVTSGYDYDYWGQGTQVTVSS”, the “polyreactivity (PSR sort gate)” value is listed as “low polyreactivity”.

As for “QVQLVESGGGLVQAGGSLRLSCAASGFTFWTYPMGWYIQAPGKERELVAAIDSGGSTYYADSVKGRFTISRDNAKNTVYLQMNSLKPEDTAVYYCNAGPSVTSGYDYDYRGQGTQVTVSS”, the “polyreactivity (PSR sort gate)” value is given as “low polyreactivity”.
